Results taken from US20080113421A1, “Stabilizing proteins against denaturation and inactivation by charged detergents using chemical modifications, including modifications that increase net charge” (President and Fellows of Harvard College, priority 2006, published 2008).

Assays:
[1] = Denaturation of BCA charge ladders in 3 mM SDS (dialysis cassette) followed by capillary electrophoresis, with transition-state model fit; assay type: physicochemical
Protocol: Denaturation experiments were performed as follows. A charge ladder of BCA (BCA-Acn or BCA-Hexn, 1 mL of 100 micromolar total protein in Tris-Gly buffer) was placed in a dialysis cassette (MW cutoff of 10 kDa). The dialysis cassette was placed in a 1 L bath of 3 mM SDS in Tris-Gly buffer at room temperature. The buffer was changed every 24 h. At regular intervals of time (approximately every half-hour), 100 microliters of the protein solution was removed from the dialysis cassette; ˜7 microliters of that aliquot was diluted 10-fold and the absorbance of the diluted sample at 280 nm (ε280,BcA=57,000 M^−1 cm^−1, the absorption cross section can be assumed to be is unchanged by acylation) was measured to determine the total protein concentration. The aliquot was diluted because the absorbance of the 100 micromolar solution was too high to be read accurately by the ultraviolet spectrometer. This diluted aliquot was discarded. The remainder of the solution was then run on CE. The protein solution, except for the portion diluted for ultraviolet measurement, was returned to the dialysis cassette; the aliquot was outside of the dialysis cassette for ˜5 min.
Capillary electrophoresis experiments were carried out in a Beckman (Fullerton, Calif.) PACE-MDQ system, using a capillary of inner diameter of 50 micrometers of total length of 110.2 cm, 100 cm to the detector. Tris-Gly in D2O was used as the running buffer, and the applied voltage was 30 kV. D2O was used in place of H2O for the electrophoresis buffer because the viscosity of D2O is higher than that of H2O and the higher viscosity minimizes diffusion. Samples were injected using pressure (20 psi) for 30 s. Each sample contained 0.65 mM dimethylformamide as an electrically neutral marker for electroosmotic flow.
The CMC of SDS in the Tris-Gly buffer used in this example was 4.3 mM. 3 mM SDS was chosen for these experiments because this concentration of SDS denatured BCA in an interval of time that was convenient for experimental work using CE. In addition, this concentration of SDS was close to the concentration often used in SDS-PAGE (0.1% or 3.5 mM). 1 mL of a solution of ˜100 micromolar of a charge ladder of BCA, dissolved in Tris-Gly buffer, was placed into a dialysis cassette (molecular weight cutoff of 10 kDa) and the cassette placed in 1 L of Tris-Gly buffer containing 3 mM SDS. The bath was kept at room temperature (˜22° C.) for the duration of the experiment.
At regular intervals of time (approximately every half hour), 100-microliter aliquots of the solutions containing the charge ladder of BCA were removed from the cassette in a bath of 3 mM SDS in Tris-Gly buffer, the total protein concentration in the aliquot was measured using absorbance at 280 nm, and a portion (˜10 nL) of the aliquot injected onto the CE. The unused portions of the aliquots were then returned to the cassette.
Residence time in the detection volume was determined as follows. […] If two proteins with the same absorptivity were present in a sample in equal concentrations, the protein of lower velocity would have a larger measured peak area than the protein of higher velocity. To correct for this experimental bias, the area of each peak was multiplied-by the velocity of the protein (Acorr=Ameasured×LD/tD), where LD is the length of the capillary from the end (where injection occurs) to the detector (100 cm in all of these experiments) and tD is the time it takes for the rung to reach the detector.
Initial differences in concentrations of each rung were as follows. The areas of each of the rungs in the charge ladder were not all equal before denaturation. To measure the fraction of each rung that has denatured at each time, the velocity-corrected area of each rung in the sample was divided by the velocity-corrected area of that rung in the charge ladder run in the absence of SDS.
A comparison of the rates of denaturation follows. […]

[2] = Unfolding (denaturation) of protein in SDS in Tris-Gly buffer, monitored by DNSA fluorescence; assay type: physicochemical
Protocol: Monitoring unfolding of BCA and BCA-Ac18 was performed as follows. The proteins (200 nM) were incubated in different concentrations of SDS in Tris-Gly buffer. A 100 microliter aliquot of protein-SDS solution was mixed with 100 microliters of DNSA solution (30 micromolar) with the same concentration of SDS, and measured the intensity of fluorescence (Perkin-Elmer LS50B spectrometer, λex=280 nm, λem=460 nm) as a function of time. The denaturation of BCA was continuously monitored in concentrations of SDS above 4 mM. The rate constants were determined for denaturation by fitting the intensity vs. time data to FU=FUmaxe^−kt+FUmin. Unfolding experiments at 37° C. were performed similarly, with samples stored in a dry bath incubator (Fisher Scientific).
The kinetics of unfolding were determined as follows. The rates of denaturation of BCA and BCA-Ac18 were measured by incubating the protein (200 nM) in solutions of different concentrations of SDS. Immediately prior to the measurement, an aliquot of solution containing protein and SDS was mixed with a solution containing DNSA and the same concentration of SDS; this protocol minimized the possibility that DNSA might stabilize the native conformation of the protein, and influence the rate of its denaturation. When BCA was denatured in concentrations of SDS of 4 mM and higher, DNSA was added to the original, denaturing solution because the rate of denaturation was too fast to follow with manual mixing of aliquots of protein and DNSA. It was observed that DNSA, when present with the protein in the denaturing solution, reduced the rates of denaturation by factors of about 2-10.
FIG. 1 plots the fluorescence of DNSA, normalized to the signal at t=0, as a function of time of incubation of samples of BCA and BCA-Ac18 in various concentrations of SDS. The decrease in the intensity of fluorescence of DNSA, and thus in the amount of folded protein, followed first-order kinetics. Denaturation of proteins with surfactants probably proceeds through intermediates, but when using a marker that is specific to the folded active site of carbonic anhydrase, transitions beyond the initial unfolding of the three-dimensional structure of the protein were not detected.
The tables list the half-lives (t1/2) for denaturation of BCA and BCA-Ac18 at several concentrations of SDS. The denaturation of BCA at 4 mM occurred very rapidly, and data are not shown to avoid overlap with data at 3.5 mM. The error bars represent the difference between the average and the largest and smallest values measured from at least three replicate measurements.

What does the source list for bovine carbonic anhydrase II [BCA]?
ΔG‡ of denaturation (a coefficient) ([1]; 3 mM SDS, room temperature, assumes νκTST=10^6 s^−1): 14 ± 1 kcal/mol; radius of the transition state RTS ([1]; model, assuming a radius of BCA of 2 nm): 2.1 nm; t1/2 for denaturation ([2]; 4 mM SDS, Tris-Gly buffer, with DNSA present during denaturation): 15 s; t1/2 for denaturation ([2]; 10 mM SDS, Tris-Gly buffer): < 5 s; denaturation in low concentrations of SDS ([2]; SDS below 2 mM, long (~1 month) periods of time): no denaturation; concentration of SDS at which the protein denatures ([2]; Tris-Gly buffer, CMC 4.3 mM): ≥ 2500 µM
